Experimental data: patent US20180155451A1 (published 2018)

Experiments:
[1] = target: T1, FcγRIa extracellular domain with C-terminal His tag (human, UniProt P12314 16-292); assay: SPR (Biacore), antibody captured via antigen peptide, FcγR as analyte; binding relative to GpH7-A5/GpH7-B3/GpL16-k0 = 100
T1 construct: extracellular domain; Soluble receptor expressed in FreeStyle293 cells, used as analyte in Biacore; also called FcgRI; CD64; not shown: His tag at the C terminus

[2] = target: T1, FcγRIa extracellular domain with …; assay: SPR (Biacore); ratio of He/Con_1a (FcγRIa) to He/Con_2b (FcγRIIb) of the same antibody
[3] = target: T2, FcγRIIb extracellular domain with C-terminal His tag (human, UniProt P31994 43-217); assay: SPR (Biacore), antibody captured via antigen peptide, FcγR as analyte; binding relative to GpH7-A5/GpH7-B3/GpL16-k0 = 100
T2 construct: extracellular domain; Soluble receptor expressed in FreeStyle293 cells, used as analyte in Biacore; also called FcgRIIb; CD32B; not shown: His tag at the C terminus
T2 sequence (looked up): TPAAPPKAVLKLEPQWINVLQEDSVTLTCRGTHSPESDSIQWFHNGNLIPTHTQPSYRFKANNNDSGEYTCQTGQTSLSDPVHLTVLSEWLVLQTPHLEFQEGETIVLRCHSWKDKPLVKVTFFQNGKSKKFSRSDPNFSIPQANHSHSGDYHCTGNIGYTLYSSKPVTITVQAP

T1 sequence (P12314 16-292): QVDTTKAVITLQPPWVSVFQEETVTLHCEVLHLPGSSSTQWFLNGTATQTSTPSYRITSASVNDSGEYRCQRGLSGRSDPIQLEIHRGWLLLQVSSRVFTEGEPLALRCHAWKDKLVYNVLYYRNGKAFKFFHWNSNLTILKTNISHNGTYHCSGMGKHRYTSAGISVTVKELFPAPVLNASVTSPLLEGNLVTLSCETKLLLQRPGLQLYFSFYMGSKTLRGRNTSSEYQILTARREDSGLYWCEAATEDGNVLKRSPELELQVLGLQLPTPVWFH

B1: GpH7-A5/GpH7-B3 variant G237_11K/GpL16-k0 (antibody, human IgG1, kappa)
heavy 1: not shown
heavy 2: not shown
light: DIVMTQSPLSLPVTPGEPASISCQASESLVHSNRNTYLHWYLQKPGQSPQLLIYKVSNRFSGVPDRFSGSGSGTDFTLKISRVEAEDVGVYYCSQNTHVPPTFGQGTKVEIERTVAAPSVFIFPPSDEQLKSGTASVVCLLNNFYPREAKVQWKVDNALQSGNSQESVTEQDSKDSTYSLSSTLTLSKADYEKHKVYACEVTHQGLSSPVTKSFNRGEC
notes: Heterodimerized anti-glypican-3 IgG1; substitution in only one H chain; also called G237K; He Ab
He/Con_1a [1]: 63.3 % of control (GpH7-A5/GpH7-B3/GpL16-k0 = 100) | Ia/IIb He_1a/2b [2]: 7.05

B2: GpH7-A5/GpH7-B3 variant P238_01G/GpL16-k0 (antibody, human IgG1, kappa)
heavy 1: not shown
heavy 2: not shown
light: B1 light
notes: Heterodimerized anti-glypican-3 IgG1; substitution in only one H chain; also called P238G; He Ab
He/Con_1a [1]: 92.9 % of control (GpH7-A5/GpH7-B3/GpL16-k0 = 100) | He/Con_2b [3]: 56 % of control (GpH7-A5/GpH7-B3/GpL16-k0 = 100) | Ia/IIb He_1a/2b [2]: 1.66

B3: GpH7-A5/GpH7-B3 variant S239_11K/GpL16-k0 (antibody, human IgG1, kappa)
heavy 1: not shown
heavy 2: not shown
light: B1 light
notes: Heterodimerized anti-glypican-3 IgG1; substitution in only one H chain; also called S239K; He Ab
He/Con_1a [1]: 68 % of control (GpH7-A5/GpH7-B3/GpL16-k0 = 100) | He/Con_2b [3]: 24.7 % of control (GpH7-A5/GpH7-B3/GpL16-k0 = 100) | Ia/IIb He_1a/2b [2]: 2.75

B4: GpH7-A5/GpH7-B3 variant G237_16H/GpL16-k0 (antibody, human IgG1, kappa)
heavy 1: not shown
heavy 2: not shown
light: B1 light
notes: Heterodimerized anti-glypican-3 IgG1; substitution in only one H chain; also called G237H; He Ab
He/Con_1a [1]: 72.6 % of control (GpH7-A5/GpH7-B3/GpL16-k0 = 100) | He/Con_2b [3]: 55.2 % of control (GpH7-A5/GpH7-B3/GpL16-k0 = 100) | Ia/IIb He_1a/2b [2]: 1.32

B5: GpH7-A5/GpH7-B3 variant S239_15Y/GpL16-k0 (antibody, human IgG1, kappa)
heavy 1: not shown
heavy 2: not shown
light: B1 light
notes: Heterodimerized anti-glypican-3 IgG1; substitution in only one H chain; also called S239Y; He Ab
He/Con_1a [1]: 89.8 % of control (GpH7-A5/GpH7-B3/GpL16-k0 = 100) | He/Con_2b [3]: 34.9 % of control (GpH7-A5/GpH7-B3/GpL16-k0 = 100) | Ia/IIb He_1a/2b [2]: 2.57

B6: GpH7-A5/GpH7-B3 variant S239_04F/GpL16-k0 (antibody, human IgG1, kappa)
heavy 1: not shown
heavy 2: not shown
light: B1 light
notes: Heterodimerized anti-glypican-3 IgG1; substitution in only one H chain; also called S239F; He Ab
He/Con_1a [1]: 93.8 % of control (GpH7-A5/GpH7-B3/GpL16-k0 = 100) | He/Con_2b [3]: 44.1 % of control (GpH7-A5/GpH7-B3/GpL16-k0 = 100) | Ia/IIb He_1a/2b [2]: 2.13

B7: GpH7-A5/GpH7-B3 variant S239_16H/GpL16-k0 (antibody, human IgG1, kappa)
heavy 1: not shown
heavy 2: not shown
light: B1 light
notes: Heterodimerized anti-glypican-3 IgG1; substitution in only one H chain; also called S239H; He Ab
He/Con_1a [1]: 88.1 % of control (GpH7-A5/GpH7-B3/GpL16-k0 = 100) | He/Con_2b [3]: 49.4 % of control (GpH7-A5/GpH7-B3/GpL16-k0 = 100) | Ia/IIb He_1a/2b [2]: 1.78

B8: GpH7-A5/GpH7-B3 variant P238_13S/GpL16-k0 (antibody, human IgG1, kappa)
heavy 1: not shown
heavy 2: not shown
light: B1 light
notes: Heterodimerized anti-glypican-3 IgG1; substitution in only one H chain; also called P238S; He Ab
He/Con_1a [1]: 96.6 % of control (GpH7-A5/GpH7-B3/GpL16-k0 = 100) | He/Con_2b [3]: 70.4 % of control (GpH7-A5/GpH7-B3/GpL16-k0 = 100) | Ia/IIb He_1a/2b [2]: 1.37

B9: GpH7-A5/GpH7-B3 variant P238_18N/GpL16-k0 (antibody, human IgG1, kappa)
heavy 1: not shown
heavy 2: not shown
light: B1 light
notes: Heterodimerized anti-glypican-3 IgG1; substitution in only one H chain; also called P238N; He Ab
He/Con_1a [1]: 93.3 % of control (GpH7-A5/GpH7-B3/GpL16-k0 = 100) | He/Con_2b [3]: 73.2 % of control (GpH7-A5/GpH7-B3/GpL16-k0 = 100) | Ia/IIb He_1a/2b [2]: 1.27
